The assay deals with Prp43-Strep (S. cerevisiae, UniProt P53131 1-767). Nature of the assay: titration of the ATPase activity of Prp43.
Sequence of Prp43-Strep (P53131 whole entry): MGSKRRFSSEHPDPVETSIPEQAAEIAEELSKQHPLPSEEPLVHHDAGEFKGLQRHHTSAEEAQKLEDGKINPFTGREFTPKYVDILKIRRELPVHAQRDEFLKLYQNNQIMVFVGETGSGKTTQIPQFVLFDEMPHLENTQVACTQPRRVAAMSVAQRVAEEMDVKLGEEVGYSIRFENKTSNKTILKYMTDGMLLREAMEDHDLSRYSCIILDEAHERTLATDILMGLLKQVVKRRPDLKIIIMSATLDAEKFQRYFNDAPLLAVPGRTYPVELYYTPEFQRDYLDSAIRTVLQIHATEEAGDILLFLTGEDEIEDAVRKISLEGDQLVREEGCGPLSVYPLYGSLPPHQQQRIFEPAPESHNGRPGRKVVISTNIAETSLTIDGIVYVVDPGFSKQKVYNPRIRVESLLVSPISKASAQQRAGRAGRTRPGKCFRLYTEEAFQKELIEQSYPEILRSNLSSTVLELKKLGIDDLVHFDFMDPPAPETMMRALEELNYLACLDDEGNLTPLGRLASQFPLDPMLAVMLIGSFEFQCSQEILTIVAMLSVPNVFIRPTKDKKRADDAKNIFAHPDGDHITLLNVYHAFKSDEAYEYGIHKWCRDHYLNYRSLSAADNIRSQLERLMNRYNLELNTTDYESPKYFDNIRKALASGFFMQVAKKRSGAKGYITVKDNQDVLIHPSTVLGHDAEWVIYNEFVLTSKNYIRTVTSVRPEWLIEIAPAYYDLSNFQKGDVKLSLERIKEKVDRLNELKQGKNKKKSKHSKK

B1: Strep-Ntr1(1–120) (domain or fragment, S. cerevisiae, UniProt Q06411 1-120, looked up)
chain: MEDSDSNTDKKFFFKKRRIDSYNYSDEEDNNSSMNSDMTYTNDALKTSSGNAPTISKLTKTYGIGAKLLSSMGYVAGKGLGKDGSGITTPIETQSRPMHNAGLGMFSNTNSSNYHSENED
Turning to B1, the Kd (in general, the concentration at which binding is half-saturated) was 1490 ± 50 nM.

B2: Ntr1(51–110) (domain or fragment, S. cerevisiae, UniProt Q06411 51-110, looked up)
chain: NAPTISKLTKTYGIGAKLLSSMGYVAGKGLGKDGSGITTPIETQSRPMHNAGLGMFSNTN
In turn, B2 showed a dissociation constant Kd of 2240 ± 110 nM.

The values above are taken from article PMC3902948 (Nucleic Acids Research, 2013).
